The values below come from paper PMC10435522, “Molecular insights into recognition of GUCY2C by T-cell engaging bispecific antibody anti-GUCY2CxCD3” (Scientific Reports, 2023).

The chains are these.
T1: GUCY2C ECD peptide 19 (68-NSGDCRSSTCEGLDLLRKIS-87) (human)
T1 construct: human GUCY2C residues 68-87; numbers count on: the mature protein (91-110 of P25092); In the crystal the peptide holds the disulfide bond Cys72-Cys77; also called GUCY2C-peptide; 68GUCY2C-peptide87; source: synthetic peptide (New England Peptide arrays for the DELFIA; chemically synthesized for the crystal)
T1 chain: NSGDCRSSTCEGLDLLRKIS

B1: GUCY2C-1608 (IgG version of PF-07062119) (antibody, V domains shown)
VH: EVQLVESGGGLVQPGGSLRLSCAASGFTFSSYWMHWVRQAPGKGLEWIGEIKPSNELTNVHEKFKDRFTISVDKAKNSAYLQMNSLRAEDTAVYYCTRTITTTEGYWFFDVWGQGTLVTVSS
VL: DIQLTQSPSSLSASVGDRVTITCRASESVDYYGSSLLQWYQQKPGKAPKLLIYAASKLASGVPSRFSGSGSGTDFTLTISSLQPEDFATYYCQQTRKAYTFGQGTKLEIK
notes: as the VH in aGUCY2C-scFv; as the VL in aGUCY2C-scFv; IgG detected with an anti-human IgG secondary antibody; also called GUGY2C-1608; Ab GUCY2C-1608
B2: anti-GUCY2C single chain Fv (aGUCY2C-scFv) fragment of PF-07062119 (scFv, V domains shown)
VH: EVQLVESGGGLVQPGGSLRLSCAASGFTFSSYWMHWVRQAPGKGLEWIGEIKPSNELTNVHEKFKDRFTISVDKAKNSAYLQMNSLRAEDTAVYYCTRTITTTEGYWFFDVWGQGTLVTVSS
VL: DIQLTQSPSSLSASVGDRVTITCRASESVDYYGSSLLQWYQQKPGKAPKLLIYAASKLASGVPSRFSGSGSGTDFTLTISSLQPEDFATYYCQQTRKAYTFGQGTKLEIK
notes: Fc removed with AcTEV protease; also called anti-GUCY2C-scFv; source: Expi293F, transfected (with kifunensine), purified (MAb Select Sure, Superdex 200 SEC, TEV cleavage); not shown: Fc, C-terminal, cleaved

For one assay, the target named is T2, human GUCY2C ECD, purified (from HuGUCY2C_ECD_TEV_muIgG2amutFc_Flag) (human, UniProt P25092).
T2 construct: human GUCY2C extracellular domain, residues 1-407; numbers count on: the mature protein (24-430 of P25092); For the crystal the complex with the scFv was treated with endoglycosidase H. The limits 1-407 are stated for the crystallised ECD; also called full GUCY2C ECD; full length GUCY2C-ECD; source: Expi293F, transfected (with kifunensine), purified (MAb Select Sure, Superdex 200 SEC, TEV …)
T2 sequence (P25092 24-407): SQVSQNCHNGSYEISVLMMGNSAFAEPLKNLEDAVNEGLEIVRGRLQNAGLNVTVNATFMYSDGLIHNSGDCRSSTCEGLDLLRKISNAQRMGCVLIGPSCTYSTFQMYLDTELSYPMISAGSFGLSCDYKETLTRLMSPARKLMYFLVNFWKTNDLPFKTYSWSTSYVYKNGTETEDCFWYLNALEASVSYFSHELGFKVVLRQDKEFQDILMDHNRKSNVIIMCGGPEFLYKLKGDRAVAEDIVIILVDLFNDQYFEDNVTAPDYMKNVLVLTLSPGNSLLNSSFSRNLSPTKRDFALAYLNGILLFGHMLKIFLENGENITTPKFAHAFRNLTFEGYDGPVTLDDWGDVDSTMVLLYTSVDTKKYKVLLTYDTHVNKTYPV
As to the kind of experiment: ELISA; DELFIA competition ELISA; human GUCY2C ECD coated at 1 ug/ml; GUCY2C-1608 at EC80 mixed with peptide 19 serially diluted 1:3 from 10 ug/ml; anti-human IgG europium detection. The settings on record: both partners purified. (In general: ELISA stands for enzyme-linked immunosorbent assay.)
Consider B1, for which the binding result is “binds”.

The target in a further assay is T1, GUCY2C ECD peptide 19 …. The assay is described as above. Particulars: both partners purified.
In the case of B1, the binding result is “binds”.

The next assay addresses PF-07062119, anti-GUCY2CxCD3 bispecific antibody. As to the kind of experiment: flow cytometry of yeast-displayed GUCY2C ECD. The settings on record: 2 independent experiments, triplicate samples; parent: est. 36; read off a plot. (In general: A flow cytometer gives signals particle by particle.)
“human GUCY2C ECD displayed on yeast (CID1814) (from UniProt P25092) L83I”: the response came out at 28. Regarding “human GUCY2C ECD displayed on yeast (CID1814) (from UniProt P25092) R84K”, the response was found to be 48. “human GUCY2C ECD displayed on yeast (CID1814) (from UniProt P25092) S15N”: the response is 21. “human GUCY2C ECD displayed on yeast (CID1814) (from UniProt P25092) K85Q”: the response was found to be 50. Still for that read-out and setting: the figure for “human GUCY2C ECD displayed on yeast (CID1814) (from UniProt P25092) D81E” is 33. Turning to “human GUCY2C ECD displayed on yeast (CID1814) (from UniProt P25092) S87F”, the response was found to be 32. Still for that read-out and setting: next, “human GUCY2C ECD displayed on yeast (CID1814) (from UniProt P25092) S62F”: 30; “human GUCY2C ECD displayed on yeast (CID1814) (from UniProt P25092) S74T”: 41; “human GUCY2C ECD displayed on yeast (CID1814) (from UniProt P25092) I66L”: 34.

The assay is the same for the next values; noted with them: 2 independent experiments, triplicate samples; parent: est. 130; read off a plot.
With “human GUCY2C ECD displayed on yeast (CID1814) (from UniProt P25092) human 259-269 substituted with chicken residues 257-267”, the response stood at 80. As for “human GUCY2C ECD displayed on yeast (CID1814) (from UniProt P25092) Q210R; E230A; D238T; E259R”, the response came out at 220. Consider “human GUCY2C ECD displayed on yeast (CID1814) (from UniProt P25092) human 172-178 substituted with chicken residues 170-176”, for which the response is 140. On the same count and under the same terms, the figure for “human GUCY2C ECD displayed on yeast (CID1814) (from UniProt P25092) human 238-243 substituted with chicken residues 236-241” is 110; for “human GUCY2C ECD displayed on yeast (CID1814) (from UniProt P25092) Y109V; T133N” it is 97.

In the case of “human GUCY2C ECD displayed on yeast (CID1814) (from UniProt P25092) human 207-217 substituted with chicken residues 205-215”, the response worked out at 150. “human GUCY2C ECD displayed on yeast (CID1814) (from UniProt P25092) N21D; A23D; D71G”: the response is 43.

With “human GUCY2C ECD displayed on yeast (CID1814) (from UniProt P25092) human 198-206 substituted with chicken residues 196-204”, the response came to 160. For “human GUCY2C ECD displayed on yeast (CID1814) (from UniProt P25092) S163T; G403S”, the response was 96. As for “human GUCY2C ECD displayed on yeast (CID1814) (from UniProt P25092) A331E; L335I”, the response stood at 110. The same measure, in the same setting: the figure for “human GUCY2C ECD displayed on yeast (CID1814) (from UniProt P25092) human 363-376 substituted with chicken residues 361-374” is 65; for “human GUCY2C ECD displayed on yeast (CID1814) (from UniProt P25092) human 153-166 substituted with chicken residues 151-164” it is 37.

The same assay, now with this note: 2 independent experiments, triplicate samples; read off a plot.
Take “chicken GUCY2C ECD displayed on yeast (CID1818) (from UniProt E1BZE2) chicken residues 70-84 replaced by human 73-87”: the response was 11. Turning to “chicken GUCY2C ECD displayed on yeast (CID1818) (from UniProt E1BZE2) chicken residues 71-89 replaced by human 74-92”, the response was 14.

Another assay has as its target T1, GUCY2C ECD peptide 19 …. In words: crystal structure; aGUCY2C-scFv with GUCY2C-peptide 68-87, complex formed at 1:1.2 molar ratio; 1.6 A; two complexes in the asymmetric unit. Particulars: both partners purified.
For the molecule B2, the binding result is recorded as “binds”.

For a further assay, the target named is T2, human GUCY2C ECD, purified (from …). As to the kind of experiment: crystal structure; aGUCY2C-scFv with GUCY2C-ECD (1-407), mixed at 1.2:1, treated with endoglycosidase H, purified by SEC; 3.52 A; one complex in the asymmetric unit. Particulars: both partners purified. A general note: Size exclusion chromatography separates by hydrodynamic size, large species first.
For B2, the binding result is reported as “binds”.
